Tests used:
[1] = target: IL-TIF protein (SEQ ID NO:3) (human) (UniProt Q9GZX6); assay: cell-based or functional assay
[2] = target: T1, CRF2-4/zcytor11 heterodimeric receptor on BaF3/CRF2-4/zcytor11 cells (human, UniProt Q08334 20-325); assay: cell-based or functional assay
T1 sequence 1: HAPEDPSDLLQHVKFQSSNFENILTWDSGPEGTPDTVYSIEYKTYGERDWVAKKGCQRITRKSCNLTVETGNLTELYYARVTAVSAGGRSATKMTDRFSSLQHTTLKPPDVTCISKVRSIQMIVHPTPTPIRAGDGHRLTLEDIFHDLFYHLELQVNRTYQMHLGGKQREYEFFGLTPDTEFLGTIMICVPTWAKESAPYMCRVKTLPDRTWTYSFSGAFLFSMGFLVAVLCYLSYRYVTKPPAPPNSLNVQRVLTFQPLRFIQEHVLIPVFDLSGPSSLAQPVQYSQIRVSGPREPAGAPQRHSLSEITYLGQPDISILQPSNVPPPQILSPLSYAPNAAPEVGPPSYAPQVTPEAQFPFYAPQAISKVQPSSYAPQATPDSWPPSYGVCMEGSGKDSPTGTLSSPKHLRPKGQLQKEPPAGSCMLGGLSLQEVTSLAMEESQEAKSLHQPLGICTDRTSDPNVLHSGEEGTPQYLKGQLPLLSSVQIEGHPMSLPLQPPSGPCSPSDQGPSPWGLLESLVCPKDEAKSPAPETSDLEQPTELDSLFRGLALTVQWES
T1 sequence 2: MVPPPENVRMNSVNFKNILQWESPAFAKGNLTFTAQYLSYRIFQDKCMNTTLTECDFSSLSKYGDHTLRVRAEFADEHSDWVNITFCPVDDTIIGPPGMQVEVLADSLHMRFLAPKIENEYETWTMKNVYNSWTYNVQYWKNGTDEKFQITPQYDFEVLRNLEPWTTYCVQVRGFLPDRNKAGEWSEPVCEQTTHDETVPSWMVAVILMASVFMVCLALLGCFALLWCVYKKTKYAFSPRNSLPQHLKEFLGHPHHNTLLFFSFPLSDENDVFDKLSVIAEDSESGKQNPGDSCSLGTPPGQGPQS

Molecule: CRF2-4/zcytor11-Fc4 soluble heterodimer receptor (Fc fusion)
- concentration at which inhibition of IL-TIF-induced proliferation was barely detectable [1]: 63 ng/mL
- concentration giving complete inhibition of IL-TIF-induced proliferation [1]: 8 µg/mL
- concentration giving partial inhibition of IL-TIF-induced proliferation [1]: 0.125 to 4 µg/mL

B1: IL-TIF protein (SEQ ID NO:3) (ligand)
chain: APISSHCRLDKSNFQQPYITNRTFMLAKEASLADNNTDVRLIGEKLFHGVSMSERCYLMKQVLNFTLEEVLFPQSDRFQPYMQEVVPFLARLSNRLSTCHIEGDDLHIQRNVQKLKDTVKKLGESGEIKAIGELDLLFMSLRNACI
- proliferation of BaF3/CRF2-4/zcytor11 cells (Alamar Blue) at 100 pg/ml IL-TIF [2]: 13 fold

B2: IL-TIF-CEE polypeptide purified from BHK 570 cells (ligand)
chain: APISSHCRLDKSNFQQPYITNRTFMLAKEASLADNNTDVRLIGEKLFHGVSMSERCYLMKQVLNFTLEEVLFPQSDRFQPYMQEVVPFLARLSNRLSTCHIEGDDLHIQRNVQKLKDTVKKLGESGEIKAIGELDLLFMSLRNACIEYMPME
- proliferation of BaF3/CRF2-4/zcytor11 cells (Alamar Blue), fold induction at 0.06 ng/ml IL-TIF-CEE [2]: 2 fold
- proliferation of BaF3/CRF2-4/zcytor11 cells (Alamar Blue), fold over background at 50 ng/ml IL-TIF-CEE [2]: ~15 fold

Source: patent publication US20040023341A1 (ZymoGenetics, published 2004)
